System: blocking anti-c-Src monoclonal antibodies

Row | Substance | TIMP-2 tyrosine phosphorylation in HT1080 CM (pulldown, anti-phos-Tyr immunoblot) | TIMP-2 tyrosine phosphorylation in SYF+c-Src CM (pulldown, anti-phos-Tyr immunoblot)
1 | secreted c-Src (e-Src) in conditioned media of HT1080 human fibrosarcoma cells | TIMP-2 tyrosine phosphorylation was abolished | 
2 | secreted c-Src (e-Src) in conditioned media of SYF+c-Src cells |  | TIMP-2 tyrosine phosphorylation was abolished

Reference: US20190322724
